Tests used:
[1] = target: T1, Human CD47 Protein, Fc Tag (HPLC verified; Acro, cat:CD7-H5256-100ug) (human, UniProt Q08722 19-139); assay: ELISA, plate coated with human CD47 Fc Tag protein, anti-SCACD3 detection
T1 construct: Bought Fc-tagged CD47 coated on the ELISA plate; not shown: Fc tag

[2] = target: T2, CD47 on human cells (red blood cells from healthy human donors; BxPC3; ZR-75-1) (human, UniProt Q08722 19-323); assay: cell-based or functional assay
[3] = target: T2, CD47 on human cells (red blood cells …); assay: flow cytometry, JY102-Alexa Fluor 488 at 10 ug/ml, % stained BxPC3 cells against % stained RBCs
Procedure: Again, RBC cells from healthy human donors or cultured BxPC3 cells were collected and resuspended to a concentration of approximately 5×10⁶ cells/ml in ice cold PBS, 3% BSA. 100 μl of cell suspension was used for each binding reaction and incubated with indicated doses of JY102-Alexa Fluor 488 for at least 30 min at room temperature (or 4° C. for the assay in panel C) in the dark. Then cells were washed 3 times by centrifugation at 400 g for 5 min and resuspended in ice cold PBS, 3% BSA. Each sample was subjected to flow cytometry analysis.

T2 sequence (Q08722 19-323): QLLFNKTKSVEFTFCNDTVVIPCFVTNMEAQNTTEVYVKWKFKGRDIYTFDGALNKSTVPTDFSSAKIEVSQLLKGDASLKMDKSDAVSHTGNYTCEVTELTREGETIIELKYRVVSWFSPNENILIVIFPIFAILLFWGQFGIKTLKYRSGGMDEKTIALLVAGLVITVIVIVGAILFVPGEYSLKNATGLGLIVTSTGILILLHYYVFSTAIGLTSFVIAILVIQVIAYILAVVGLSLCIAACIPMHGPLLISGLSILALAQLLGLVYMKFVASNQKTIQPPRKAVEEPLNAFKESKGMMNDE
T1 sequence (Q08722 19-139 limits assumed): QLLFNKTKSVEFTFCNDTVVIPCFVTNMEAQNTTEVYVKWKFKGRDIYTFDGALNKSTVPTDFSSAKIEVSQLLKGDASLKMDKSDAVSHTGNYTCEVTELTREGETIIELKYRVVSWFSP

B1: JY102 (30kmPEG-(SCACD3)SCACD47) (bispecific antibody)
scFv 1: not shown
scFv 2: DIVMTQSPLSLPVTPGEPASISCRSSQSIVYSNGNTYLGWYLQKPGQSPQLLIYKVSNRFSGVPDRFSGSGSGTDFTLKISRVEAEDVGVYYCFQGSHVPYTFGQGTKLEIKGGCSGGSGGSGGSGGQVQLVQSGAEVKKPGASVKVSCKASGYTFTNYNMHWVRQAPGQRLEWMGTIYPGNDDTSYNQKFKDRVTITADTSASTAYMELSSLRSEDTAVYYCARGGYRAMDYWGQGTLVTVSS
modifications: free thiol (Cys) in the VL-VH linker is conjugated to Azide-PEG10-Maleimide; the azide is clicked to the DBCO of 30kmPEG-Lys(SCACD3)-DBCO; free thiol (Cys) genetically inserted in the VH-VL linker is conjugated to the maleimide of 30kmPEG-Lys(maleimide)-DBCO
notes: also called Compound 12; compound 12
- EC50 [1]: 0.187 µg/mL
- EC50 of T cell mediated cytotoxicity (MTS assay, expanded T cells, E:T 5:1, 24 h) to ZR75-1 [2]: 111 ng/mL
- fold difference in binding (BxPC3 cells against RBCs) [3]: 40 fold
